Experimental data reported in publication PMC6171183 (2018).

Molecular target: T1, GST-LjBAK1cyt (Lotus japonicus, UniProt A0A2H4NR37)
T1 chain: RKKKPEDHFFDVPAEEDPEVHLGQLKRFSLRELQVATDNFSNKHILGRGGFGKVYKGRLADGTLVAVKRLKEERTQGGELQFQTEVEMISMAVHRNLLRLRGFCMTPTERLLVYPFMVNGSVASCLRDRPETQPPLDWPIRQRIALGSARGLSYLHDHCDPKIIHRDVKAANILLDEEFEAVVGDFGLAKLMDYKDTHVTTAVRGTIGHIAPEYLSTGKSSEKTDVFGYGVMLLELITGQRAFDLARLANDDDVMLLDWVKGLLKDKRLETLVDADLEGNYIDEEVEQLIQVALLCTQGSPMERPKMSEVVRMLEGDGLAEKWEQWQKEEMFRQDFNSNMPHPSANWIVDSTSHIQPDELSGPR
Test: GST pull-down

- binding result: binds
B1: HIS-NFR5cyt (protein)
chain: RRKKALNRTASSAETADKLLSGVSGYVSKPNVYEIDEIMEATKDFSDECKVGESVYKANIEGRVVAVKKIKEGGANEELKILQKVNHGNLVKLMGVSSGYDGNCFLVYEYAENGSLAEWLFSKSSGTPNSLTWSQRISIAVDVAVGLQYMHEHTYPRIIHRDITTSNILLDSNFKAKIANFAMARTSTNPMMPKIDVFAFGVLLIELLTGRKAMTTKENGEVVMLWKDMWEIFDIEENREERIRKWMDPNLESFYHIDNALSLASLAVNCTADKSLSRPSMAEIVLSLSFLTQQSSNPTLERSLTSSGLDVEDDAHIVTSITAR
